Legend:
[1] = target: T1, Recombinant human BTLA (Sino Biological Inc.) (human, UniProt Q7Z6A9 31-157, limits assumed); assay: binding specificity ELISA, coated recombinant human BTLA, anti-human IgG-HRP
T1 sequence (looked up): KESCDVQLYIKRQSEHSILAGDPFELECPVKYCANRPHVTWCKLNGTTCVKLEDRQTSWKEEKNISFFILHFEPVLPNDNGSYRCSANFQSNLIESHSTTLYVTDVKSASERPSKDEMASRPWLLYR
Description: (§1) The plate was washed five times with PBST and blocked with 300 μL/well of PBST containing 1% BSA and incubated at 25° C. for 1 hour. The plate was washed five times with PBST. […] The plate was washed five times with PBST. Then, horseradish peroxidase-labeled anti-human IgG antibody (Chemicon, Catalog Number AP309P) 1:2000 diluted in PBST containing 1% BSA was added, 100 μL was added to each well, incubated at 25° C. for 1 hour. The plate was washed five times with PBST. 100 μL/well of colorimetric substrate TMB was added and incubated at room temperature for 10 minutes. Color development was terminated by adding 100 μL/well of 1 M H₂SO₄. The absorbance at 450 nm was read on a microplate reader.

[2] = target: T2, Recombinant human ICOS (Sino Biological Inc.) (human, UniProt Q9Y6W8 21-141); assay: binding specificity ELISA, coated recombinant human ICOS, anti-human IgG-HRP
T2 sequence (looked up): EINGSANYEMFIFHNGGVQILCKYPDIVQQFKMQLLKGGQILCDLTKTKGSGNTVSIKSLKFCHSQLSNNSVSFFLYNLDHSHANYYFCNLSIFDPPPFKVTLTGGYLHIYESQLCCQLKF
Description: as §1

[3] = target: T3, Recombinant human PD-1 (Sino Biological Inc., Catalog Number 10377-H08H) (human, UniProt Q15116 25-167); assay: ELISA, coated recombinant human PD-1 (1 ug/mL), detection with anti-human IgG-HRP, OD450nm
T3 construct: Bought protein; also called antigen PD-1
Description: (§2) Recombinant human PD-1 (purchased from Sino Biological Inc.) was coated on a 96-well high-absorbing ELISA plate with a carbonate buffer solution with pH 9.6, the coating concentration was 1 μg/mL, the coating amount was 100 μL per well, and the coating was carried out at 4° C. overnight. The plate was washed five times with PBST and blocked with 300 μL/well of PBST containing 1% BSA, and then incubated at 25° C. for 1 hour. The plate was washed five times with PBST. […] The plate was washed five times with PBST. Then, horseradish peroxidase-labeled anti-human IgG antibody (Chemicon, Catalog Number AP309P) 1:2000 diluted in PBST containing 1% BSA was added, 100 μL per well, incubated at 25° C. for 1 hour. The plate was washed five times with PBST. 100 μL/well of colorimetric substrate TMB was added and incubated at room temperature for 10 minutes. Color development was terminated by adding 100 μL/well of 1 M H₂SO₄. The absorbance at 450 nm was read on a microplate reader.

[4] = target: T4, Recombinant mouse PD-1 (Sino Biological Inc.) (mouse, UniProt Q02242 25-167); assay: species specificity ELISA, coated recombinant mouse PD-1, anti-human IgG-HRP
T4 sequence (looked up): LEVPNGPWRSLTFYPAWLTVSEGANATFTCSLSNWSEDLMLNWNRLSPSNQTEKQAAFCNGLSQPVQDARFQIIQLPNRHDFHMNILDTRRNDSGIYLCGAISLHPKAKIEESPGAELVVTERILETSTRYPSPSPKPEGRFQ
Description: Recombinant human PD-1, monkey PD-1, rat PD-1 and mouse PD-1 (all purchased from Sino Biological Inc.), were coated on a 96-well high-absorbing ELISA plate with a carbonate buffer solution with pH 9.6, the coating concentration was 1 μg/mL, the coating amount was 100 μL per well, and the coating was carried out at 4° C. overnight. The plate was washed five times with PBST and blocked with 300 μL/well of PBST containing 1% BSA, and then incubated at 25° C. for 1 hour. The plate was washed five times with PBST. […] The plate was washed five times with PBST. Then, horseradish peroxidase-labeled anti-human IgG antibody (Chemicon, Catalog Number AP309P) 1:2000 diluted in PBST containing 1% BSA was added, 100 μL per well, incubated at 25° C. for 1 hour. The plate was washed five times with PBST. 100 μL/well of colorimetric substrate TMB was added and incubated at room temperature for 10 minutes. Color development was terminated by adding 100 μL/well of 1 M H₂SO₄: The absorbance at 450 nm was read on a microplate reader.

[5] = target: T3, Recombinant human PD-1 (Sino Biological …); assay: ELISA, human PD-1 coated
Description: as §2

[6] = target: T5, Recombinant human PD-L2 (Sino Biological Inc.) (human, UniProt Q9BQ51 20-220); assay: binding specificity ELISA, coated recombinant human PD-L2, anti-human IgG-HRP
T5 sequence (looked up): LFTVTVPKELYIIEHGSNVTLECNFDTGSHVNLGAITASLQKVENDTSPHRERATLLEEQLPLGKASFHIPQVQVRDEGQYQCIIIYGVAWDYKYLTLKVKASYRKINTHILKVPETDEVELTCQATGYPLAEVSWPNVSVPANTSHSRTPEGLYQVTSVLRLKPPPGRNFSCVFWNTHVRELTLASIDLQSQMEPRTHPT
Description: as §1

[7] = target: T6, Recombinant human PD-1-Fc (human, UniProt Q15116 25-167, limits assumed); assay: competition ELISA, coated human PD-1-Fc, blocked ligand biotin-labeled PD-L2 (final 160 nM), streptavidin-HRP, OD450nm [panel PD-1/PD-L2 Blocking Activity]
T6 construct: also called recombinant human PD-1-Fc protein; not shown: Fc part
Description: Recombinant human PD-1-Fc was coated on a 96-well high-absorbing ELISA plate with a carbonate buffer solution with pH 9.6, the coating concentration was 1 μg/mL, the coating amount was 100 μL per well, and the coating was carried at 4° C. out overnight. The plate was washed five times with PBST and blocked with 300 μL/well of PBST containing 1% BSA and incubated at 25° C. for 1 hour. The plate was washed five times with PBST. The positive control and the anti-human PD-1 antibody sample were added, 50 μL per well. […] The plate was washed five times with PBST. Then, Streptavidin-HRP (BD Pharmingen, Catalog Number 554066) 1:1000 diluted in PBST containing 1% BSA was added, 100 μL per well, incubated at 25° C. for 1 hour. The plate was washed five times with PBST. 100 μL/well of colorimetric substrate TMB was added and incubated at room temperature for 10 minutes. Color development was terminated by adding 100 μL/well of 1 M H₂SO₄. The absorbance at 450 nm was read on a microplate reader.

T3 sequence (Q15116 25-167 limits assumed): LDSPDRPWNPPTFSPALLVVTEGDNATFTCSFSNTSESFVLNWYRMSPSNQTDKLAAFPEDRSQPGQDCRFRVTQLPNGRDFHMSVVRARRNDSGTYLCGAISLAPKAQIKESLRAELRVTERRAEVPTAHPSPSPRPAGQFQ
T6 sequence (Q15116 25-167 limits assumed): as above

B1: anti-human PD-1 chimeric monoclonal antibody (antibody, human IgG4 S228P, kappa, V domains shown)
VH: EVQLQESGGGLVKPGGSLKLSCAASGFTFSSYGMSWVRQTPEKRLEWVASISGGGRYTYYPDSMKGRFTISRDNAKNNLHLQMSSLRSEDTALYYCVYEYFYTMDYWGQGTSVTVSS
VL: DIVLTQSPATLSVTPGDSVSLSCRANQSISNNLHWYQQRSHESPRLLIRFASQSISGIPSRFSGSGSGTDFTLSINSVETEDFGMYFCQQSDNWPLTFGAGTKLEIKR
notes: expressed in 293F cells; also called Anti-human PD-1 Chimeric Antibody; chimeric anti-human PD-1 monoclonal antibody
- binding result [1]: no binding
- binding result [2]: no binding
- EC50 [3]: 0.092 nM
- binding result [4]: no binding (tested: about 20 nM)
- EC50 [5]: 0.031 nM
- binding result [6]: no binding
- IC50 [7]: 0.895 nM

Reference: US20190367615A1 (BEIJING HANMI PHARM, published 2019)
